From publication doi:10.1101/2022.09.29.510120 come the findings set out here.

Assay [1] addresses native RPE1 extracted from Chlamydomonas reinhardtii cell cultures (Chlamydomonas reinhardtii (endogenous in strain D66)). Put plainly: SEC.
Assay [2] deals with recombinant ribulose-5-phosphate-3-epimerase isoform 1 from Chlamydomonas reinhardtii (CrRPE1) (Chlamydomonas reinhardtii). The experiment in a line: SEC-SAXS. (Size exclusion chromatography separates by hydrodynamic size, large species first.)
For assay [3] the target is unchanged. Put plainly: SEC.
The target is the same in assay [4]. The experiment in a line: crystal structure.

By stoichiometry N is commonly meant the number of molecules, sites or subunits per partner or assembly. For the substance “native RPE1 extracted from Chlamydomonas reinhardtii cell cultures (enzyme)”, in assay [1], the stoichiometry N turned out to be 6 subunits.
“recombinant ribulose-5-phosphate-3-epimerase isoform 1 from Chlamydomonas reinhardtii (CrRPE1) (enzyme)”: the stoichiometry N (subunits per particle) in assay [2] came out at 6. For the same substance, the values for the stoichiometry N in assay [3] and in assay [4] were 5 subunits and 6 subunits, respectively.
